Results from patent US10772928B2, “Modulation and detection of a neuronal alternative splicing regulatory network for treatment and diagnosis of neurological disorders” (The Governing Council of the University of Toronto, priority 2014, dated 2020).

Target: T1, nSR100 (Mus musculus, UniProt Q8BKA3)
T1 construct: host or cells: mouse N2A cells
T1 sequence (Q8BKA3 1-608): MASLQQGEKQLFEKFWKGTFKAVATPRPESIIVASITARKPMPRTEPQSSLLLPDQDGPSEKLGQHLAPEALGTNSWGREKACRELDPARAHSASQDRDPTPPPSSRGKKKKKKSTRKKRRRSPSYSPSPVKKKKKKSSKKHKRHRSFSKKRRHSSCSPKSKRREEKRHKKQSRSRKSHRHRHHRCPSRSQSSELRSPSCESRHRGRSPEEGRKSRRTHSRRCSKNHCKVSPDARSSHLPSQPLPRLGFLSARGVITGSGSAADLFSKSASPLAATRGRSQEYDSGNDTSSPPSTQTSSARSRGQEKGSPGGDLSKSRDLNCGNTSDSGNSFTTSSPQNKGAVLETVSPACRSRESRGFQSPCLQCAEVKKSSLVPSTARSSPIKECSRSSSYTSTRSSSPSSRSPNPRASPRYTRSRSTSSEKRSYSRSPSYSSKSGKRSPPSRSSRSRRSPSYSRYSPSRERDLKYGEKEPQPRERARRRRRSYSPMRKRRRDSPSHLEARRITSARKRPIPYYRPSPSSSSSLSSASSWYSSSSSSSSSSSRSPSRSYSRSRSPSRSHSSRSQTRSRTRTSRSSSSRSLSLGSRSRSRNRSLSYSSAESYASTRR
Assay: AP-MS nSR100 interaction partners from mouse N2A cells (Table 5)
Format: binding
Settings: for AvgP (average of the SAINT scores) / MaxP (maximal SAINT score): bait Srrm4; for FoldChange between the prey Avg spectra of the bait and control purifications: bait Srrm4, 0.1 added to prevent division by 0; for AvgSpec (average number of spectra per replicate): bait Srrm4, 2 replicates; for Spectra (number of spectra for the prey in the purification of the bait): AP-MS; for SpecSum: bait Srrm4, sum of spectra over 2 replicates

[1] = bait Srrm4, biological replicate 1 (first number of the cell)
[2] = bait Srrm4, biological replicate 2 (second number of the cell)

Text: By applying affinity purification coupled to mass-spectrometry (AP-MS), several interaction nSR100 partner proteins were detected that provide insight into mechanisms of post-translational regulation of nSR100 levels.

B1: Rbm25 (protein, UniProt B2RY56 1-838, looked up)
RNA-binding protein 25: MSFPPHLNRPPMGIPALPPGIPPPQFPGFPPPVPPGTPMIPVPMSIMAPAPTVLVPTVSMVGKHLGARKDHPGLKLKENDENCGPTTTVFVGNISEKASDMLIRQLLAKCGLVLSWKRVQGASGKLQAFGFCEYKEPESTLRALRLLHDLQIGEKKLLVKVDAKTKAQLDEWKAKKKANGNARPETVTNDDEEALDEETKRRDQMIKGAIEVLIREYSSELNAPSQESDSHPRKKKKEKKEDIFRRFPVAPLIPYPLITKEDINAIEMEEDKRDLISREISKFRDTHKKLEEEKGKKEKERQEIEKERRERERERERERERREREREREREREREKEKERERERERDRDRDRTKERDRDRERDRDRDRERSSDRNKDRSRSREKSRDREREREREREREREREREREREREREREREREREKDKKRDREEDEEDAYERRKLERKLREKEAAYQERLKNWEIRERKKTREYEKEAEREEERRREMAKEAKRLKEFLEDYDDDRDDPKYYRGSALQKRLRDREKEMEADERDRKREKEELEEIRQRLLAEGHPDPDAELQRMEQEAERRRQPQIKQEPESEEEEEEKQEKEEKREEPVEEEEEPEQKPCLKPTLRPISSAPSVSSASGNATPNTPGDESPCGIIIPHENSPDQQQPEEHRPKIGLSLKLGASNSPGQPNSVKRKKLPVDSVFNKFEDEDSDDVPRKRKLVPLDYGEDDKNATKGTVNTEEKRKHIKSLIEKIPTAKPELFAYPLDWSIVDSILMERRIRPWINKKIIEYIGEEEATLVDFVCSKVMAHSSPQSILDDVAMVLDEEAEVFIVKMWRLLIYETEAKKIGLVK
AvgP (average of the SAINT scores): 1
MaxP (maximal SAINT score): 1
FoldChange between the prey Avg spectra of the bait and control purifications: 180
AvgSpec (average number of spectra per replicate): 18
Spectra (number of spectra for the prey in the purification of the bait) [1]: 16
Spectra (number of spectra for the prey in the purification of the bait) [2]: 20
SpecSum: 36

B2: Prpf4b (protein, UniProt Q61136 2-1007, looked up)
Serine/threonine-protein …: AATEPPSLREQAEMDDADNSEKSVNEENGEVSEDQSQNKHSRHKKKKHKHRSKHKKHKHSSEEDRDKKHKHKHKHKKHKRKEVIEASDKEGLSPAKRTKLDDLALLEDLEKQRALIKAELDNELMEGKVQSGMGLILQGYESGSEEEGEIHEKARNGNRSSTRSSSTRGKLEITDNKNSAKKRSKSRSKERTRHRSDKRKSKGAGEMLREKANRSKSKERRKSKSPSKRSKSQDQARKSKSPPLRRRSQEKVGKARSPAEEKMKSEEKGKIKDRKKSPIVNERSRDRSKKSKSPVDLRDKSKDRRSRSKERKSKRSEIDKEKKPIKSPSKDASSGKENRSPSRRPGRSPKRRSLSPKLRDKSRRSRSPLLNDRRSKQSKSPSRTLSPGRRAKSRSLERKRREPERRRLSSPRTRPRDDILGRCERSKDASPINRWSPTRRRSRSPIRRRSRSPLRRSRSPRRRSRSPRRRDRSRRSRSRLRRRSRSRGGHRRRSRSKVKEDKFKGSLSEGMKVEQESSSDDNLEDFDVEEEDEEALIEQRRIQRQAIVQKYKYLAEDSNISVPSEPSSPQSSTRSRSPSPDDILERVAADVKEYERENVDTFEASVKAKHNLMTVEQNNGSSQKKILAPDMFTESDDMFAAYFDSARLRAAGIGKDFKENPNLRDNWTDAEGYYRVNIGEVLDKRYNVYGYTGQGVFSNVVRARDNARANQEVAVKIIRNNELMQKTGLKELEFLKKLNDADPDDKFHCLRLFRHFYHKQHLCLVFEPLSMNLREVLKKYGKDVGLHIKAVRSYSQQLFLALKLLKRCNILHADIKPDNILVNESKTILKLCDFGSASHVADNDITPYLVSRFYRAPEIIIGKSYDYGIDMWSVGCTLYELYTGKILFPGKTNNHMLKLAMDLKGKMPNKMIRKGVFKDQHFDQNLNFMYIEVDKVTEREKVTVMSTINPTKDLLADLIGCQRLPEDQRKKVHQLKDLLDQILMLDPAKRISINQALQHAFIQEKI
AvgP (average of the SAINT scores): 1
MaxP (maximal SAINT score): 1
FoldChange between the prey Avg spectra of the bait and control purifications: 45
AvgSpec (average number of spectra per replicate): 4.5
Spectra (number of spectra for the prey in the purification of the bait) [1]: 4
Spectra (number of spectra for the prey in the purification of the bait) [2]: 5
SpecSum: 9

B3: Sf1 (protein, UniProt Q64213 2-653, looked up)
Splicing factor 1: ATGANATPLDFPSKKRKRSRWNQDTMEQKTVIPGMPTVIPPGLTREQERAYIVQLQIEDLTRKLRTGDLGIPPNPEDRSPSPEPIYNSEGKRLNTREFRTRKKLEEERHTLITEMVALNPDFKPPADYKPPATRVSDKVMIPQDEYPEINFVGLLIGPRGNTLKNIEKECNAKIMIRGKGSVKEGKVGRKDGQMLPGEDEPLHALVTANTMENVKKAVEQIRNILKQGIETPEDQNDLRKMQLRELARLNGTLREDDNRILRPWQSSETRSITNTTVCTKCGGAGHIASDCKFQRPGDPQSAQDKARMDKEYLSLMAELGEAPVPASVGSTSGPATTPLASAPRPAAPASNPPPPSLMSTTQSRPPWMNSGPSENRPYHGMHGGGPGGPGGGPHSFPHPLPSLTGGHGGHPMQHNPNGPPPPWMQPPPPPMNQGPHPPGHHGPPPMDQYLGSTPVGSGVYRLHQGKGMMPPPPMGMMPPPPPPPSGQPPPPPSGPLPPWQQQQQQPPPPPPPSSSMASSTPLPWQQNTTTTTTSAGTGSIPPWQQQQAAAAASPGTPQMQGNPTMVPLPPGVQPPLPPGAPPPPPCSIECLLCLLSSPNSLCLSPNRAARIPPRGSDGPSHESEDFPRPLVTLPGRQPQQRPWWTGWFGKAA
AvgP (average of the SAINT scores): 1
MaxP (maximal SAINT score): 1
FoldChange between the prey Avg spectra of the bait and control purifications: 11.92
AvgSpec (average number of spectra per replicate): 71.5
Spectra (number of spectra for the prey in the purification of the bait) [1]: 70
Spectra (number of spectra for the prey in the purification of the bait) [2]: 73
SpecSum: 143

B4: Sf3b1 (protein, UniProt Q99NB9 1-1304, looked up)
Splicing factor 3B subunit 1: MAKIAKTHEDIEAQIREIQGKKAALDEAQGVGLDSTGYYDQEIYGGSDSRFAGYVTSIAATELEDDDDDYSSSTSLLGQKKPGYHAPVALLNDIPQSTEQYDPFAEHRPPKIADREDEYKKHRRTMIISPERLDPFADGGKTPDPKMNARTYMDVMREQHLTKEEREIRQQLAEKAKAGELKVVNGAAASQPPSKRKRRWDQTADQTPGATPKKLSSWDQAETPGHTPSLRWDETPGRAKGSETPGATPGSKIWDPTPSHTPAGAATPGRGDTPGHATPGHGGATSSARKNRWDETPKTERDTPGHGSGWAETPRTDRGGDSIGETPTPGASKRKSRWDETPASQMGGSTPVLTPGKTPIGTPAMNMATPTPGHIMSMTPEQLQAWRWEREIDERNRPLSDEELDAMFPEGYKVLPPPAGYVPIRTPARKLTATPTPLGGMTGFHMQTEDRTMKSVNDQPSGNLPFLKPDDIQYFDKLLVDVDESTLSPEEQKERKIMKLLLKIKNGTPPMRKAALRQITDKAREFGAGPLFNQILPLLMSPTLEDQERHLLVKVIDRILYKLDDLVRPYVHKILVVIEPLLIDEDYYARVEGREIISNLAKAAGLATMISTMRPDIDNMDEYVRNTTARAFAVVASALGIPSLLPFLKAVCKSKKSWQARHTGIKIVQQIAILMGCAILPHLRSLVEIIEHGLVDEQQKVRTISALAIAALAEAATPYGIESFDSVLKPLWKGIRQHRGKGLAAFLKAIGYLIPLMDAEYANYYTREVMLILIREFQSPDEEMKKIVLKVVKQCCGTDGVEANYIKTEILPPFFKHFWQHRMALDRRNYRQLVDTTVELANKVGAAEIISRIVDDLKDEAEQYRKMVMETIEKIMGNLGAADIDHKLEEQLIDGILYAFQEQTTEDSVMLNGFGTVVNALGKRVKPYLPQICGTVLWRLNNKSAKVRQQAADLISRTAVVMKTCQEEKLMGHLGVVLYEYLGEEYPEVLGSILGALKAIVNVIGMHKMTPPIKDLLPRLTPILKNRHEKVQENCIDLVGRIADRGAEYVSAREWMRICFELLELLKAHKKAIRRATVNTFGYIAKAIGPHDVLATLLNNLKVQERQNRVCTTVAIAIVAETCSPFTVLPALMNEYRVPELNVQNGVLKSLSFLFEYIGEMGKDYIYAVTPLLEDALMDRDLVHRQTASAVVQHMSLGVYGFGCEDSLNHLLNYVWPNVFETSPHVIQAVMGALEGLRVAIGPCRMLQYCLQGLFHPARKVRDVYWKIYNSIYIGSQDALIAHYPRIYNDDKNTYIRYDLDYIL
AvgP (average of the SAINT scores): 1
MaxP (maximal SAINT score): 1
FoldChange between the prey Avg spectra of the bait and control purifications: 3.45
AvgSpec (average number of spectra per replicate): 112
Spectra (number of spectra for the prey in the purification of the bait) [1]: 92
Spectra (number of spectra for the prey in the purification of the bait) [2]: 132
SpecSum: 224
